Consider one molecule from article PMC5826585.

The target of the data set is IGF2BP2-dRRM (Homo sapiens, UniProt Q9Y6M1 158-599). Description: pull-down.
Chain of IGF2BP2-dRRM (Q9Y6M1 158-599): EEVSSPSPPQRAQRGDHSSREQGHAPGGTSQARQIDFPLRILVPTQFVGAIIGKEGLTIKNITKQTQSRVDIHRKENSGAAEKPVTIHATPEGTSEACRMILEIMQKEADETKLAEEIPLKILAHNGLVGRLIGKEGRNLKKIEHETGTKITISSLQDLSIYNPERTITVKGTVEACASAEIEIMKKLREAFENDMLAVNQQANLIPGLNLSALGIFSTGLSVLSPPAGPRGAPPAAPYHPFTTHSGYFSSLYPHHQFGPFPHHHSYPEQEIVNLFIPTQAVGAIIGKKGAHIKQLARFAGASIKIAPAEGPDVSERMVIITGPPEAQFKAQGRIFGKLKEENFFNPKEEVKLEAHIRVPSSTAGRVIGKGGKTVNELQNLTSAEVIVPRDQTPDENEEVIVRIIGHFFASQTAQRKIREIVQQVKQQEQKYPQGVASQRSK

B1: ss-m6A (biotin) (ssRNA)
RNA: CGUCUCGGACUCGGACUGCU
modifications: m6A at positions 9 and 15
B1: the binding result was “binds”.
